# Measured values published in patent US20260042847A1, “CYSTEINE ENGINEERED ANTIBODY CONSTRUCTS, CONJUGATES AND METHODS OF USE” (ZYMEWORKS INC., priority 2021, published 2026).
# B1: v17427-MCvcPABC-MMAE (conjugate, chains of the INN, looked up)
# VH: QVQLVQSGAEVKKPGASVKVSCKASGYIFTAYTMHWVRQAPGQGLEWMGWIKPNNGLANYAQKFQGRVTMTRDTSISTAYMELSRLRSDDTAVYYCARSEITTEFDYWGQGTLVTVSS
# VL: DIVMTQSPDSLAVSLGERATINCKSSESVDSYANSFLHWYQQKPGQPPKLLIYRASTRESGVPDRFSGSGSGTDFTLTISSLQAEDVAVYYCQQSKEDPLTFGGGTKVEIK
# modifications: IgG, HetFc MC-vc-PABC-MMAE
# Test system: mid c-Met expressing colorectal cancer xenograft model HT-29
# Test: In vivo anti-tumor activity, HT-29 xenograft
# Set-up: species or system balb/c nude mice
# Settings: single IV dose, toxin-matched 6 (DAR1), 3 (DAR2), 2 (DAR3), 1.5 (DAR4) mg/kg, FIG. 7A
# Description: For the HT-29 model, tumor cell suspensions (3×10^6 cells in 0.1 ml PBS) were implanted subcutaneously into balb/c nude mice. When mean tumor volume reached ˜160 mm3, the animals were randomly assigned to groups (n=8 per group) and treated with a single IV dose of test articles as shown in Table 14.1. Dose levels of ADCs at different DARs were molar matched to toxin. Tumor volume and body weight were measured twice weekly with a study duration of 32 days.
molecule,measurement,value
B1,tumor growth inhibition compared to vehicle,did not significantly inhibit tumor growth
